Source: the DeepSol protein solubility set

assay: soluble on expression in E. coli; label from the status in PepcDB or PDB records

Sequence | soluble on expression in E. coli
MGSDKIHHHHHHMEFFSTRNKILSINPNGLRSTSIQLRERIWNVFYKEEYDYYDTLEYTSYTTGIEDMMLEMGIKYEFPANKIYKNQNAEKLHKHVVQCEGMWYRIYDFIEKYLRVTDSEKTQRLTIEFNRILEEEVAPYRILNGLVVPIIGKSELNSIGETIDLEYESVSKHMTKALELYSDRKKPDYENSVKESISSVESMCSIITGLSGGAATLGNTLKKLKENGVNIHPALENAFKQLYGYTSDSGGIRHGSIEFVNVASEDAKYMLVSCSAFVNYLTEKWIKYNLK | not soluble
MAGDPMNSLIDRRLNGRNKSAVNRERFLRRYKDQIRKAVQDLIRERSISDMDQGGEINLPARDISEPSFRHGEGGDREIVHPGNREFAKGDTFDRPQGGDGGSGSQPGEGESVDQFTFSLSRAEFLNLFFEDLELPHLARTQLGDVKQQRWHRAGYTTTGSPSMLSVNRTLKASLSRRVALGVGARAALDAAEQELEAARDAGAPQAELDRLLAEVEKCAARVARVPFLDDLDLRYRNRVAVAVPMARAVMFCLMDVSGSMDEMKKDLAKRFFTLLYMFLSRKYEHVDVIFIRHTDNAEEVDEQTFFYDPKSGGTIVLSALELMHEIVQKRYSPATWNIYAAQASDGDSFGADAGKSARFLAENLLPATRYFAYIEVPDSQEARKSSLWAEYEQESASHFVMRRICERGEIFPVFHDLFKKETVLEHHHHHH | soluble
MSLTTLHFSGFPRVGAFRELKFAQEKYWRKEISEQELLAVAKDLREKNWKHQVAANADFVAVGDFTFYDHILDLQVATGAIPARFGFDSQNLSLEQFFQLARGNKDQFAIEMTKWFDTNYHYLVPEFHADTEFKANAKHYVQQLQEAQALGLKAKPTVVGPLTFLWVGKEKGAVEFDRLSLLPKLLPVYVEILTALVEAGAEWIQIDEPALAVDLPKEWVEAYKDVYATLSKVSAKILLSTYFGSVAEHAALLKALPVDGLHIDLVRAPEQLDAFADYDKVLSAGVIDGRNIWRANLNKVLETVEPLQAKLGDRLWISSSCSLLHTPFDLSVEEKLKANKPDLYSWLAFTLQKTQELRVLKAALNEGRDSVAEELAASQAAADSRANSSEIHRADVAKRLADLPANADQRKSPFADRIKAQQAWLNLPLLPTTNIGSFPQTTEIRQARSAFKKGELSAADYEAAMKKEIALVVEEQEKLDLDVLVHGEAERNDMVEYFGELLSGFAFTQYGWVQSYGSRCVKPPIIFGDVSRPEAMTVAWSTYAQSLTKRPMKGMLTGPVTILQWSFVRNDIPRSTVCKQIALALNDEVLDLEKAGIKVIQIDEPAIREGLPLKRADWDAYLNWAGESFRLSSAGCEDSTQIHTHMCYSEFNDILPAIAAMDADVITIETSRSDMELLTAFGEFQYPNDIGPGVYDIHSPRVPTEAEVEHLLRKAIEVVPVERLWVNPDCGLKTRGWKETLEQLQVMMNVTRKLRAELAKEGHHHHHH | not soluble
MNELTKQMQQIMHPRAVLVAYECETTGYSTPRSYLELRPVNEKGRMGAGIPVTYEFMNSLVESYTESMSGIPHGRIPGNMLLCDSRKGRERYIWYNPPQKRKMYFQDGLHITDGTFNVPGVIYVVERECMDIHAFKGAIPEERTELYLAPFFNVAGANVCLGSSSPKKPQDMDFLEFQEYWEKRFWMSEFSHLGGNRNPTRSNLVSVTEHARNNPFDYSELQQSGKKLKDILA | not soluble
MSLYKVTRGKSEQYLKDERALEDYLIATGLDDCAFKLANGEVRGGRDLLALVEDARAIRSTLHNLHSRYNRSVVEQAAIAGVLSPRITTDIATANEAAAYIARRLDALADEVERGWVGHFTEGEGFRFERTVRGVKEVAAIDDAMLGSADARKLDEYAAVLQEVYPRPGVLRRKEAETAIHGPISLFEAVTDAGRKGVALQRYKGLGEMNPSQLWETTLDTNARSLLQVKVREVDEADDIFTKLMGDVVEPRREFIQENSLHATVDVEGHHHHHH | soluble
MGSDKIHHHHHHMTQKESIRLFEERKVRAIWDDEQEEWYFSIVDVISILTDSPNPRKYWSVLKTRLKREGSELTTNCSQLKMQAADGKKYLTDVANTEQLFRLIQSVPSPKAEPFKLWIAQVAKERLDQMQDPELSIEQAMADYKRLGYSDNWINQRLKSIEIRKDLTDEWKKRGLEEGLHFATLTDIIYKSWSDMTSKEYKRFKGLRKENLRDNMTNKELVLNMLAELSTKEISEASEPDTFSEHINVAQQGGEVARNARLELEAKTGKSVISPLNAQKIISLKKGENERDV | not soluble
MGSDKIHHHHHHMSISLATISGRVHAGERISDEEALFLFESRDPLAVGELAAAVNRRRNGDRVFFNVNRHINHTNICVNRCSFCAFYRAADEPGAYLYDLEEIRNRAAEAHAQGATEIHIVGGLHPDLPFDFYLAMLRTVKEVSPDLHVKAFTAVEIEYLSRLAGLSTAETLTVLKEAGLGSLPGGGAEIFAPAVRNRLCPEKISGDKWLAIMEEVHRAGLKSNATMLYGHIESYADRVDHMRRLRELQDRTGGFQVFIPLAFQKDNNPLGHLKRPGPGGVDALLTLAVARIYLDNFANIKAYWVMLGVKIAQTSLAFGVNDLDGTVVEEKIGHDAGAASPQTMGRDEIVSLIRTAGRVPVERDTLYNELRVY | not soluble
MGSDKIHHHHHHMMFLPEQISKLNELETLVFDFIIKSPEEVQQMTIRDLASQAHVSTSTIVRLCTKLGFEGWSDLKFYLKNQLKEKTPEEQHYDNMLEFNMFLRRMNTDNYQAKLNNAAQMIAKADYTVFLGLGTSGSLSEYATKYFVNTGLRSFVISDPFQAVQVQGMGNVVAVIMSVSGETEQVVNKELEFKAGGAKIISITNNEDCTVAKLADYQLSYNLVNEWSKQYPLGNLTTQLPVLAILEILAHKSIDYHLKK | not soluble
MSLSGVVERITFVNEENGFSVVKIKSKGFSDLVTAVGNMASVNVGAVVSLRGEWKYDSKFGRQFNVYHYEESIPATVAGIEKYLGSGLIKGIGPVNAKRIVKVFKEDTIRVIEEEPDRLIEVPGIGKKRVEMIKEAWQNQKEIKNVMLFLQSHGVSTAFAVKIFKTYGSDSIKIVKENPYRLADDIWGIGFKTADKIAQNMGYDKESYARIRSGIMYALNEFANDGHCFAKKDELVNKASELLGVELEKVETAIQHMLEEKSVIMEEDDAVYLPPFYYSEVGVARRIREIIETKSMYSFYNFDGIIEDLQRECNIQYDEVQIEAIRKAVVSKFMVLTGGPGTGKTTTTLAIIKVFQKLGATVLLAAPTGRAAKRMSEATGMEAKTIHRLLEYSPQDGYKKNDDNPLECDVLIIDETSMIDIILMYNLLKAVSNNTVVILVGDVDQLASVGAGNVLKDIIESGMVTVVRLMRIFRQAMGSAIVTNAHKINHGEYPVLKGGKNSNFFFIEEEDPEKIVELVRELCSKRLPGYYKINPLNDIQVLCPMQKGVVGAQNLNTVLQETLNPCDISIKYGGTIYKLNDRVMQIKNNYDKNVFNGDMGIITDIDQEEKTVRIKFDDAEVEYDVTELDEVTLAYAVTVHKSQGSEYNFVVAPFTMQHYMMLQRNLLYTCVTRAKKVLVLIGSKKALGCCIRNSRSMDRNTKLAQRLKADTEGHHHHHH | soluble
SLKPSRPVETAYLQGQPGTPFPVIRGIGWSEDQGRRPDMEDGMVAISNLAGVANAWLLGIYDGHGGRQMVEMLLQKIHGNVLQHLRSRAIERWQRYRQRAMSRLQDIRRRLDELHFQQQLACRDVRVLMPPTQRLVELLRLGRICEWVLQCEEPSQEGRTETEKSSASKAPTPPSFLTICTEEDVHRALDEAFVQTDVEILQRLTHPSDHKAGCERDARRVESLGGWVFGERVNGMLAIGRAFGDWSLKLPPGKANPPYSPTSGAFDRLLNIFGTSPSHAAEQAAAERKEYVVSNAPDVRSVSLTPERPAQVPGGIRRNSPSSRASESQTAMSGQETGAGRVPGLLVLGCDGLFDVCSDQVVAHLALEFLRQLVAVHPDMSPCEAAKATARMLIEEAIGVRGSTDNVSVMVVLFHSFGFSGRDGVTPSPPTWYAAAAAKFAWLAEGVSRNVFGLPTASPIALPREPEDKTVD | not soluble
MKTADELAKLRRASELITDSMLATIAAARAGSTKLEIIEQLRREETNRGLHFEYCLLTLGASHNRAGSPQAWAEGEILSIDSGGNYHGYIGDLCRMGVLGEPDAELEDLLAEVERIQQAAFAKVRAGVLGSEMIVAAEAELKASPSAAFTDFFCHGMGLITHEAPFLMTNHPVAYEGIDADKPLEAGNVISVETTMLHPKRGFIKLEDTLAITDKGYEMFGDRGRGLEHHHHHH | soluble
